One experiment deals with T1, mIL2Rb ECD antigen (murine, UniProt P16297 27-240).
T1 construct: The immunogen was the ECD fused to human IgG1 hinge and Fc; also called ECD of IL2Rb (mouse)
T1 sequence: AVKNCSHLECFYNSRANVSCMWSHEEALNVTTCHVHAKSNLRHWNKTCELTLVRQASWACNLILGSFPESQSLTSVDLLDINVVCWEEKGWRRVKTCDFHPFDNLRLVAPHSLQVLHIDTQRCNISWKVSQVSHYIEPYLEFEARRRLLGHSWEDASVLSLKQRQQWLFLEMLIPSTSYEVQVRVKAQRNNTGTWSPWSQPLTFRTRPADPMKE
Briefly: PE-ELISA of phage clones. Background: In an ELISA, binding on a coated surface is turned into a signal by an enzyme label.

Another experiment addresses T2, hIL2Rg ECD antigen (human, UniProt P31785 23-262).
T2 construct: The immunogen was the ECD fused to human IgG1 hinge and Fc; also called ECD of IL2Rg (human); human IL-2Rγ
T2 sequence: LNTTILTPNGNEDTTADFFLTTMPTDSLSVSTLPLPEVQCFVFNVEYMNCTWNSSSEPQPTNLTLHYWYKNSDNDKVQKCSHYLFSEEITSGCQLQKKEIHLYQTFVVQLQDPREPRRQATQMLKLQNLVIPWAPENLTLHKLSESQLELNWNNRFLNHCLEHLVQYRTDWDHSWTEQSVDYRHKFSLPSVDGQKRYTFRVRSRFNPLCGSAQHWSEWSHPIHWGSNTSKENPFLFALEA
The experiment can be described thus: PE-ELISA of phage clones.

Changes are numbered by the printed parent chain.

B1: DR1461 (VHH)
VHH: EVQLVESGGRLVQAGDSLRLSCVASGRIFNTYSMGWFRQVPGKERDFVAAIRWSGGTTYYTDSVKGRFTISRDNAKNTVYLQMKDLKPQDTAVYYCAAVPSGRSWYGRNRYWGQGTLVTVSS
notes: As a his-tagged phage clone periplasmic extract
Turning to B1, in the experiment with mIL2Rb ECD antigen, the binding result is recorded as “binds”.

B2: DR1450 (VHH)
VHH: EVQLVESGGGLVQAGGSLRLSCVISGRSINYYRMGWFRQAPGNRRQFVAAIKWGGDGVYADSVKGRFTISRDNTKNTVYLQMDSLKPEDTGTYYCAKMPLSSWSRGGYLEVWGQGTLVTVSS
notes: as for B1
Regarding B2, the binding result in the experiment with mIL2Rb ECD antigen was “binds”.

B3: DR1457 (VHH)
VHH: EVQLVESGGRLVQAGDSLRLSCVASGRIFNTYSMGWFRQVPGKERDFVAAIRWSGGTTYYTDSVKGRFTISRDNAKNTVYLQMNSLKPEDTAVYYCYLRVFARRYWGQGTQVTVSS
notes: as for B1
Turning to B3, in the experiment with mIL2Rb ECD antigen, the binding result is recorded as “binds”.

B4: DR1452 (VHH)
VHH: EVQLVESGGGLVQAGGALRLSCAASGRTFRRFMGWFRQAPGKEREFVAAINWPGGGTYYGDSVKGRFTISRDNAKNTVYLQMNSLKPEDTANYYCAATRKYNLYKFADWGQGTQVTVSS
notes: as for B1
Turning to B4, the binding result with mIL2Rb ECD antigen was “binds”.

B5: DR1455 (VHH)
VHH: EVQLVESGGGLVQTGGSLRLSCAASGRTFNSYAMGWFRQSPGKEREFVAVITWNSGRTYYADSVKGRFTISRDNAKNTVYLQMNSLKPEDTAVYYCNSAPWAHNREWGQGTLVTVSS
notes: as for B1
With B5, the binding result with mIL2Rb ECD antigen is reported as “binds”.

B6: DR1460 (VHH)
VHH: EVQLVESGGGLVQTGDSLRLSCAAPESIFNNNAVYWYRQFPGKEREYVGLITIGGRTGYADSVKGRFTISRDNANNVAFLQMDSLKPEDTAVYYCATGLKFGFNFYSKTAYDYWGQGTQVTVSS
notes: as for B1
For the molecule B6, the binding result in the experiment with mIL2Rb ECD antigen is given as “binds”.

B7: DR1456 (VHH)
VHH: EVQLVESGGGLVQAGGSLRLSCAASGLTFRTYYMSWFRQAPGKEREFVGVISWIGSTTLYADSVKGRFSISRDNAKNTVYLQMNNLKPEDTAVYYCAANFLREGKREPRYWGQGTQVTVSS
notes: as for B1
Regarding B7, the binding result with mIL2Rb ECD antigen is “binds”.

B8: DR1465 (VHH)
VHH: EVQLVESGGGLMQAGGALRLSCTASGPTFTSYTMGWFRQSPGKRREFVAVISKGGRTYYADSVKGRFTISRDNAKNTFYLQMSSLKPEDTAVYYCAGQRVGATSKYEYDYWGQGTQVTVSS
notes: as for B1
With B8, in the experiment with mIL2Rb ECD antigen, the binding result is recorded as “binds”.

B9: DR1451 (VHH)
VHH: EVQLVESGGGLVQAGDSLRLSCAASERFSWGNYAMYWFRQAPGKEREFVAAIGRNSMATYYRDSAKGRFVISRDNAKNTLYLEMNALKPEDTARYYCAAKFMVADGWSRQYDYWGQGTLVTVSS
notes: as for B1
In the case of B9, in the experiment with mIL2Rb ECD antigen, the binding result was “binds”.

B10: DR1458 (VHH)
VHH: EVQLVESGGGLVQAGGSLRLSCAASGRTLSTYAMGWFRQAPGKEREFVAAIRWASGRTYYGDSVKGRFTISRDSAKNTVYLQMNSLKPEDTAVYYCAARSRPYLNYGDFGYWGQGTQVTVSS
notes: as for B1
On to B10, for which the binding result with mIL2Rb ECD antigen is “binds”.

B11: DR1467 (VHH)
VHH: EVQLVESGGGLVQAGDSLRLSCAASGRISNYAMGWFRQAPGKEREFVAVITRSGGSTYYADSVKGRFTISRDNGKNTIDLQMNRLKPEDTAVYYCAVRRSQKLVTFGAEYPWWGQGTLVTVSS
notes: as for B1
Turning to B11, in the experiment with mIL2Rb ECD antigen, the binding result was “binds”.

B12: hIL2Rg_VHH-1 (VHH)
VHH: QVQLQESGGGSVQAGGSLRLSCAASGFTFDDSDMGWYRQAPGNECDLVSTISSDGSTYYADSVKGRFTISQDNAKNTVYLQMDSVKPEDTAVYYCAADFMIAIQAPGAGCWGQGTQVTVSS
notes: as for B1
Take B12: in the experiment with hIL2Rg ECD antigen, the binding result is on record as “binds”.

B13: hIL2Rg_VHH-7 (VHH)
VHH: B12 VHH with S11L, A14P, S32R, D33E, G35N, D46E
notes: as for B1
As to B13, the binding result with hIL2Rg ECD antigen is recorded as “binds”.

B14: DR1469 (VHH)
VHH: EVQLVESGGGLVQPGGSLRLSCEVSGFTFSNYWMYWIRQAPGKGLEWVSHINTNGGNTYYRHSVKGRFTISRDNAKNTLYLQMNGLKSEDTAVYYCAKANSDVGLGYYGMDYWGKGTQVTVSS
notes: as for B1
As to B14, in the experiment with mIL2Rb ECD antigen, the binding result is on record as “binds”.

B15: DR1470 (VHH)
VHH: EVQLVESGGGSVQPGGSLRLSCAAPESIFNNNAVYWYRQFPGKEREYVGLITIGGRTGYADSVKGRFTISRDNANNVAFLQMDNLKPEDTAVYYCAARPGYWSSSYDYWGQGTQVTVSS
notes: as for B1
As to B15, the binding result with mIL2Rb ECD antigen is “binds”.

B16: hIL2Rg_VHH-23 (VHH)
VHH: QVQLQESGGGLVQPGGSLRLSCAASGFSFSSYPMTWARQAPGKGLEWVSTIASDGGSTAYAASVEGRFTISRDNAKSTLYLQLNSLKTEDTAMYYCTKGYGDGTPAPGQGTQVTVSS
notes: as for B1
With B16, the binding result in the experiment with hIL2Rg ECD antigen was “binds”.

B17: hIL2Rg_VHH-2 (VHH)
VHH: B16 VHH with L11S, Q13P, P14A, R19K
notes: as for B1
As to B17, the binding result with hIL2Rg ECD antigen is reported as “binds”.

B18: DR1453 (VHH)
VHH: EVQLVESGGRLVQAGDSLRLSCVASGRIFNTYSMGWFRQVPGKERDFVAAIRWSGGTTYYTDSVKGRFTISRDNAKNTVYLQMNSLKPEDTAVYYCWVRVRLSNTALLQRYWGQGTLVTVSS
notes: as for B1
Turning to B18, the binding result in the experiment with mIL2Rb ECD antigen is recorded as “binds”.

B19: DR1463 (VHH)
VHH: EVQLVESGGSVVQPGDSLRLACTASGRSFRSYAIGWFRQASGKERVFVAAISYDGRRTYYGRSLKDRFTISRDNAKNTVYLQMNSLKPEDTAVYYCATHRSGTMFARYGMDYWGKGTLVTVSS
notes: as for B1
Regarding B19, the binding result with mIL2Rb ECD antigen is “binds”.

B20: DR1471 (VHH)
VHH: EVQLVESGGGLVQAGGSLRLSCVFSGRAPASYAMAWFRQAVGNEREFVAAINWSGRRTYYADSVKGRFTISKDNAQNTAYLQMTNLEPEDTATYYCNAYLSGTYYWGQGTQVTVSS
notes: as for B1
For B20, in the experiment with mIL2Rb ECD antigen, the binding result was “binds”.

B21: DR1462 (VHH)
VHH: EVQLVESGGGLVQAGGSLRLSCVSSGRTFGYVAMGWFRQAPGKEREFVASINWSGGSTAYADSVKGRFTISRDNAKNTVYLQMNSLKPEDTAVYYCAGSTRFYIATMEQGSYDYWGQGTQVTVSS
notes: as for B1
With B21, the binding result in the experiment with mIL2Rb ECD antigen was “binds”.

B22: DR1466 (VHH)
VHH: EVQLVESGGGLVRAGGSLRLSCAASGFTFSTDWMYWVRRAPGKGLEWVSLINTDGTSTSYTKSVKGRFTVSRDNAKNTLYLQMNSLKPEDTALYYCARGRTYWFYAMDYWGKGTQVTVSS
notes: as for B1
B22: in the experiment with mIL2Rb ECD antigen, the binding result is listed as “binds”.

B23: DR1454 (VHH)
VHH: EVQLVESGGGLVQAGGSLRLFCASSERTFGDYPIGWFRQAPGKEREFVASISWGGSRQYYTDSVKGRFTITRDNDKNTVYLQMNSLKPEDTAVYYCWVRVRLSNTALLQRYWGQGTLVTVSS
notes: as for B1
Take B23: in the experiment with mIL2Rb ECD antigen, the binding result was “binds”.

B24: DR1448 (VHH)
VHH: EVQLVESGGRLVQAGDSLRLSCVASGKSFSDYPLGWFRQAPGKAREYVAHISWSGKLTYYRSTVKGRFTISRDNAENKLYLQMNALKPEDTAVYYCAAMKLFNYGGRYCVLKPLTMYQQWSQGTQVTVSS
notes: as for B1
Take B24: the binding result with mIL2Rb ECD antigen is “binds”.

B25: DR1472 (VHH)
VHH: EVQLVESGGGLVRAGDSLRLSCAVSGLASSSFFMTWFRQGQGKEREFVATISWTGRTSYYAASVKGRFTVSRDNAKNTVYLQMNSLNSEDTAVYFCAAYPRTLVRNREPIHWGQGTQVTVSS
notes: as for B1
With B25, the binding result with mIL2Rb ECD antigen is reported as “binds”.

B26: DR1449 (VHH)
VHH: EVQLVESGGGLVQAGGSLRLSCAASGRSFSGYAIGWFRQAPGKEREFVAVVSWRGSSTYYADSVKGRFTISRDNAKGTVYLQMNSLKPEDTAAYYCAAVPSGRSWYGRNRYWGQGTQVTVSS
notes: as for B1
With B26, the binding result with mIL2Rb ECD antigen is given as “binds”.

B27: DR1459 (VHH)
VHH: EVQLVESGGGLVQAGGSLRLSCAASGRTISTYAMVWFRQASGKEREFVGVISRSGDRTYYADSVKGRFTISRDNLGNIVRLQLNSLKPEDTAVYYCARGGYTGIETITARGRGTLVTVSS
notes: as for B1
Regarding B27, in the experiment with mIL2Rb ECD antigen, the binding result was “binds”.

B28: DR1468 (VHH)
VHH: EVQLVESGGGLVQAGGSLRLSCTTSGRTGTHYAMGWFRQAPGKEREFVSLILWNGEFTTYKDSVKGRFTISREKGENTVYLQMNSLKPEDTAVYYCYLRVFARRYWGQGTQVTVSS
notes: as for B1
Take B28: the binding result in the experiment with mIL2Rb ECD antigen is listed as “binds”.

B29: DR857 (VHH)
VHH: QVQLQESGGGLVQPGGSLRLSCAASGFTFSLYDMSWVRQAPGKGLEWVSGINSGGYSTYYAASAKGRFTISRDNAKNTLYLQLSSVKTEDTAMYYCAQRGLTSPYVIPNIRLQGTQVTVSS
notes: as for B1
On to B29, for which, in the experiment with mIL2Rb ECD antigen, the binding result is “binds”.

B30: DR1464 (VHH)
VHH: EVQLVESGGGLVQAGGSLRLSCAASGRTFSSYAMGWFRQAPGKEREFVTAISRSGGYTSYADSVKGRFTISRDNAKNTVYLQMNSLKPEDTAVYYCAKLIAPFYYGMDYWTKGTQVTVSS
notes: as for B1
B30: the binding result with mIL2Rb ECD antigen is “binds”.

The values are drawn from patent US20250019453A1 (SYNTHEKINE, published 2025).
